The text below walks through data of publication PMC4914320.

This experiment addresses Telomeric repeat binding factor 2 (TRF2), endogenous (human (endogenous in C1, UTC8505, RD and HEK293T cells)). Briefly: proximity ligation; Duolink PLA in fixed, permeabilised C1 cells with antibodies to HMGA2 (D1A7), TRF2 and RAP1; a minimum of 30 nuclei quantified.

B1: High Mobility Group AT-hook protein 2 (HMGA2), endogenous (natural protein)
chain: MSARGEGAGQPSTSAQGQPAAPAPQKRGRGRPRKQQQEPTGEPSPKRPRGRPKGSKNKSPSKAAQKKAEATGEKRPRGRPRKWPQQVVQKKPAQEETEETSSQESAEED
In the case of B1, the PLA foci per nucleus (PLA foci per nucleus) was 5.
